Stoichiometry relative to FlaA in isolated filaments (ratio relative to FlaA) data for three substances are collected here from PMC9481697.

Assay [1] has as its target FlaA (TDE1712), flagellar filament sheath protein of Treponema denticola (Treponema denticola ATCC 35405). The assay can be described thus: isolation of native flagellar filaments, 2D gel electrophoresis with densitometry; periplasmic flagella isolated from the ΔflaB3 mutant; 2D gels, Coomassie staining, densitometry; ratios relative to FlaA.
The target is the same in assay [2]. The assay can be described thus: isolation of native flagellar filaments, 2D gel electrophoresis with densitometry; periplasmic flagella isolated from the ΔflaB2 mutant; 2D gels, Coomassie staining, densitometry; ratios relative to FlaA.
Assay [3] has the same target. The assay can be described thus: isolation of native flagellar filaments, 2D gel electrophoresis with densitometry and immunoblot.
For assay [4] the target is unchanged. The assay can be described thus: isolation of native flagellar filaments, 2D gel electrophoresis with densitometry; periplasmic flagella isolated from the ΔflaB1 mutant; 2D gels, Coomassie staining, densitometry; ratios relative to FlaA.

Take “FlaB1 (TDE1477), flagellar filament core flagellin of Treponema denticola (from UniProt Q73MN1 1-286) (natural protein)”: the stoichiometry relative to FlaA in isolated filaments (ratio relative to FlaA) in assay [1] was determined as 1.12; in assay [2] it was 1.04; in assay [3] it was 0.71.

Turning to “FlaB2 (TDE1004), flagellar filament core flagellin of Treponema denticola (from UniProt Q73NZ6 1-286) (natural protein)”, the stoichiometry relative to FlaA in isolated filaments (ratio relative to FlaA) in assay [1] worked out at 0.36; in assay [3], 0.61; in assay [4], 0.5.

For the substance “FlaB3 (TDE1475), flagellar filament core flagellin of Treponema denticola (from UniProt Q73MN3 1-285) (natural protein)”, the stoichiometry relative to FlaA in isolated filaments (ratio relative to FlaA) in assay [2] is 0.38; in assay [3], 0.18; in assay [4] it was 0.94.
